For this assay, the target named is Biotinylated SP16 (human) (UniProt P01009). Briefly: SPR. A general note: In SPR one partner is held on a chip, and binding of the other changes the refractive index at the surface.

pKd: −log10 of the molar value.

As usually defined, the pKd is the Kd on a negative log10 scale, so that one unit is a factor of ten. “Recombinant human insulin receptor/CD220 (28-944) protein, His Tag (from UniProt P06213-2 28-944)” showed a pKd of 6.73.

These data come from doi:10.1101/2025.06.17.660082.
